Test results: paper PMC9001978, “Determining the Effects of Differential Expression of GRKs and β-arrestins on CLR-RAMP Agonist Bias” (Frontiers in Physiology, 2022)

Columns and labels:
[1] = target: T1, CLR-Nluc in complex with FLAG-RAMP1 (CGRP receptor) (UniProt Q16602 23-461; O60894 27-148)
T1 construct: calcitonin-like receptor (CLR), direct C-terminal in-frame fusion to NanoLuc, in pcDNA3.1(-); receptor activity modifying protein 1 (RAMP1), pcDNA3.1(+)FLAG-RAMP, described in Weston et al., 2016 and Harris et al., 2021; Harris et al., 2021; also called CLR-RAMP1; calcitonin-like receptor with receptor activity modifying protein 1; source: HEK293T, transfected, in living cells; not shown: …
T1 sequence (Q16602 23-461, chain 1 of 2): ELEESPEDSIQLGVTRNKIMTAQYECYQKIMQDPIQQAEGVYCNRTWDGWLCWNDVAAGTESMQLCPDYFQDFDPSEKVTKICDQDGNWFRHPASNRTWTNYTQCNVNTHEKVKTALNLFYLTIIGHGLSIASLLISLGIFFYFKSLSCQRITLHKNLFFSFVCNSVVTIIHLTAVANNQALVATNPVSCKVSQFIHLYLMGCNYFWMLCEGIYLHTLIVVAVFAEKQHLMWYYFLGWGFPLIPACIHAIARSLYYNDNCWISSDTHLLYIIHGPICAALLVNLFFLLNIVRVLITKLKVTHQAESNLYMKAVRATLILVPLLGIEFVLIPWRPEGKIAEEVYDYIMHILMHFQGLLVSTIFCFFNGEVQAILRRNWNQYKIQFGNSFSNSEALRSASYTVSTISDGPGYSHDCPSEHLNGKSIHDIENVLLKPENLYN
T1 sequence (O60894 27-148, chain 2 of 2): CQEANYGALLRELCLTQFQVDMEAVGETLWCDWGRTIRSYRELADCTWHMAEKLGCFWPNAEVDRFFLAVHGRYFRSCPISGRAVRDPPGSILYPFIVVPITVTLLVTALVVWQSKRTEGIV

[2] = target: T2, CLR-Nluc in complex with FLAG-RAMP2 (adrenomedullin 1 receptor) (UniProt Q16602 23-461; O60895 43-175); experiment: FRET or BRET; living HEK293T cells transfected with CLR-Nluc (donor), FLAG-RAMP1/2/3 and β-arrestin1/2-YFP (acceptor); 5 μM coelenterazine-h; stimulated with AM, 1 μM to 10 pM; BRET ratio 460/530 nm read for at least 20 min; conditions: partners not purified
T2 construct: calcitonin-like receptor (CLR), direct C-terminal in-frame fusion to NanoLuc, in pcDNA3.1(-); receptor activity modifying protein 2 (RAMP2), pcDNA3.1(+)FLAG-RAMP, described in Weston et al., 2016 and Harris et al., 2021; Harris et al., 2021; also called CLR-RAMP2; AM1R; source: HEK293T, transfected, in living cells; not shown: NanoLuc, C-terminal, kept; FLAG, N-terminal, kept
T2 sequence (Q16602 23-461, chain 1 of 2): as the sequence (Q16602 23-461, chain 1 of 2) above
T2 sequence (O60895 43-175, chain 2 of 2): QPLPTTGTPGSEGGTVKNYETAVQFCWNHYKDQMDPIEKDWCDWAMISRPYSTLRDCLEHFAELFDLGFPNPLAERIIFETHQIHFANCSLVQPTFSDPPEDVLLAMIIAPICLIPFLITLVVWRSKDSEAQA

adrenomedullin 2, sequence (Q7Z4H4 101-148): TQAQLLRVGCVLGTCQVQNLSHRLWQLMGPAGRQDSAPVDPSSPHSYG

cAMP accumulation, Emax, cells pretreated with DMSO (vehicle) (% of the response to 100 μM forskolin) [1]	cAMP accumulation, Emax, cells pretreated with barbadin (% of the response to 100 μM forskolin) [1]	cAMP accumulation, pEC50, cells pretreated with DMSO (vehicle) [1]	cAMP accumulation, pEC50, cells pretreated with barbadin [1]	pEC50 of AM for recruitment (BRET) [2]	Molecule
79.8	47.2	6.34	4.93	–	adrenomedullin 2 (from UniProt Q7Z4H4 101-148) (peptide)
–	–	–	–	7.57 ± 0.17	β-arrestin1-YFP (natural protein, UniProt P49407 1-418, looked up, β-arrestin1 with an in-frame C-terminal YFP (Mackie et al., 2019); source: HEK293T, transfected, in living cells; not shown: YFP, C-terminal, kept) MGDKGTRVFKKASPNGKLTVYLGKRDFVDHIDLVDPVDGVVLVDPEYLKERRVYVTLTCAFRYGREDLDVLGLTFRKDLFVANVQSFPPAPEDKKPLTRLQERLIKKLGEHAYPFTFEIPPNLPCSVTLQPGPEDTGKACGVDYEVKAFCAENLEEKIHKRNSVRLVIRKVQYAPERPGPQPTAETTRQFLMSDKPLHLEASLDKEIYYHGEPISVNVHVTNNTNKTVKKIKISVRQYADICLFNTAQYKCPVAMEEADDTVAPSSTFCKVYTLTPFLANNREKRGLALDGKLKHEDTNLASSTLLREGANREILGIIVSYKVKVKLVVSRGGLLGDLASSDVAVELPFTLMHPKPKEEPPHREVPENETPVDTNLIELDTNDDDIVFEDFARQRLKGMKDDKEEEEDGTGSPQLNNR
